The record followed here is patent US20230143003A1 (JULIUS MAXIMILIANS UNIVERSIT T W RZBURG, published 2023).

Where two headings read alike, the source gives them in different places.

Test [1] has as its target T1, hROR2-Fc (human ROR2 Fc fusion protein) (human, UniProt Q01974 34-403, limits assumed).
T1 construct: Given both as hROR2-Fc and as Fc-hROR2, so the order of the two parts is not certain; also called Fc-hROR2; not shown: human Fc part (captured by a mouse anti-human IgG CH2 / Fcγ mAb)
The experiment in a line: SPR, Biacore X100; hROR2-Fc captured, Fab injected.

In test [2] the target is T1, hROR2-Fc (human ROR2 Fc fusion protein). The experiment in a line: SPR (Biacore X100), Fc-hROR2 captured on CM5 chip via mouse anti-human Fcγ mAb, Fab as analyte, 1:1 binding model. A general note: In SPR one partner is held on a chip, and binding of the other changes the refractive index at the surface.
Method: (§1) A CM5 chip immobilized with a mouse anti-human Fcγ mAb was used to capture Fc-hROR2.
(§2) Kinetic and thermodynamic parameters for the ROR2 binding of purified anti-ROR2 Fab variants were measured by use of SPR as previously described [29], performed on a Biacore X100 instrument using Biacore reagents and software (GE Healthcare). Briefly, a CM5 sensor chip was immobilized with a mouse anti-human IgG CH2 mAb in order to capture the hROR2-Fc antigen.
Test [3] concerns the target T2, human ROR1 on cells (MDA-MB-231, ROR2-, ROR1+; also 786-O, ROR2+, ROR1+) (human, UniProt Q01973 30-937).
T2 construct: whole, on cells
The test is described as follows: flow cytometry on MDA-MB-231 cells (ROR2-, ROR1+); Fab followed by PE-conjugated goat anti-human F(ab')2 pAbs. Background: In flow cytometry, cells or beads pass a laser one at a time.
Method: Cells were analyzed using a FACSCanto instrument (BD Biosciences) and FlowJo analytical software (Tree Star).

For test [4], the target named is T1, hROR2-Fc (human ROR2 Fc fusion protein). The test is described as follows: SPR (Biacore X100), Fc-hROR2 captured on CM5 chip via mouse anti-human Fcγ mAb, Fab as analyte, 1:1 binding model. This is another data set of the same source.
Method: as §1, §2

Broadly, the Kd is the constant that tells how readily two partners part at equilibrium. In general, koff refers to the first-order rate constant of dissociation. One may read the kon as a measure of how fast the partners come together. Read a high kon as faster complex formation.

B1: hX3.12.8 Fab (Fab, V domains shown)
VH: EQQVVESGGGLVQPGGSLRLSCAASGFSLSSYGVTWVRQAPGKGLEWVGYINTAGNTYYASWAKSRFTISRDNSKNTVYLQMNSLRAEDTAVYYCARDDRWSLNIWGQGTLVTVSS
VL: DPMLTQSPSSLSASVGDRVTITCQASQSISSDLSWYQQKPGKAPKLLIYQASTLASGVPSRFKGSGYGTEYTLTISSLQPEDFATYYCLGGYADASYRTAFGGGTKLEIK
notes: The text says that hX3.12.5 to hX3.12.8 all utilized VL2
Molecule B1 gave a Kd in test [1] of 5.2 nM. In test [2], this molecule gave a koff of 0.00067 s⁻¹ and a kon of 130000 M⁻¹ s⁻¹.

B2: h401.6 Fab (hX3.12.6 framework regions with parental 401 CDR sequences) (Fab, V domains shown)
VH: EVQLVESGGGLVQPGGSLRLSCAASGFTFSSYGVTWVRQAPGKGLEWVSYINTAGNTYYASWAKSRFTISRDNAKNSLYLQMNSLRAEDTAVYYCARDWTSLNIWGQGTLVTVSS
VL: DPMLTQSPSSLSASVGDRVTITCQASQSISSDLSWYQQKPGKAPKLLIYQASTLASGVPSRFKGSGYGTEYTLTISSLQPEDFATYYCLGGYADASYRTAFGGGTKLEIK
notes: this is an inference
Molecule B2 gave a Kd in test [1] of 16 nM. Further, the binding result in test [3] was “no binding”. Moreover, in test [2], the koff was 0.00023 s⁻¹ and the kon was 14000 M⁻¹ s⁻¹.

B3: XBR2-401-hX3.12.6 Fab (affinity matured and humanized) (Fab, V domains shown)
VH: EVQLVESGGGLVQPGGSLRLSCAASGFTFSSYGVTWVRQAPGKGLEWVSYINTAGNTYYASWAKSRFTISRDNAKNSLYLQMNSLRAEDTAVYYCARDDRWSLNIWGQGTLVTVSS
VL: DPMLTQSPSSLSASVGDRVTITCQASQSISSDLSWYQQKPGKAPKLLIYQASTLASGVPSRFKGSGYGTEYTLTISSLQPEDFATYYCLGGYADASYRTAFGGGTKLEIK
notes: Fab expressed in E. coli
B3: the Kd in test [1] turned out to be 3.8 nM. In addition, in test [3], the binding result is reported as “no binding”. For the same molecule, in test [2], the koff turned out to be 0.00022 s⁻¹ and the kon was found to be 60000 M⁻¹ s⁻¹.

B4: XBR2-401-hX3.12.5 Fab (affinity matured and humanized) (Fab, V domains shown)
VH: EVQLVESGGGLIQPGGSLRLSCAASGFTVSSYGVTWVRQAPGKGLEWVSYINTAGNTYYASWAKSRFTISRDNSKNTLYLQMNSLRAEDTAVYYCARDDRWSLNIWGQGTLVTVSS
VL: DPMLTQSPSSLSASVGDRVTITCQASQSISSDLSWYQQKPGKAPKLLIYQASTLASGVPSRFKGSGYGTEYTLTISSLQPEDFATYYCLGGYADASYRTAFGGGTKLEIK
notes: Fab expressed in E. coli
B4: the Kd in test [1] amounted to 2.6 nM. Moreover, in test [3], the binding result is listed as “no binding”. In test [2], this molecule displayed a koff of 0.00048 s⁻¹ and an on-rate constant (kon) of 190000 M⁻¹ s⁻¹.

B5: hX3.12.7 Fab (Fab, V domains shown)
VH: EQQVVESGGGLVQPGGSLRLSCAVSGFSLSSYGVTWVRQAPGKGLEWIGYINTAGNTYYASWAKSRFTISRNTNENTVYLQMNSLRAEDTAVYFCARDDRWSLNIWGQGTLVTVSS
VL: DPMLTQSPSSLSASVGDRVTITCQASQSISSDLSWYQQKPGKAPKLLIYQASTLASGVPSRFKGSGYGTEYTLTISSLQPEDFATYYCLGGYADASYRTAFGGGTKLEIK
notes: as for B1
In turn, B5 yielded a Kd in test [1] of 1.4 nM. In test [2], this molecule registered a koff of 0.00016 s⁻¹ and a kon of 110000 M⁻¹ s⁻¹.

B6: X3.6 (Fab, V domains shown)
VH: QSVKESEGGLFKPTDTLTLTCTVSGFSLSSYGVTWVRQAPGSGLEWIGYINTAGNTYYASWAKSRSTITRNTNENTVTLKMTSLTAADTATYFCARDSRNSLNIWGPGTLVTVSS
VL: DPMLTQTPSSTSTAVGDTVTIKCQASQSISSDLSWYQQKPGQRPKLLIYQASTLASGVPSRFKGSGYGTEYTLTISGVQREDAAIYYCLGGYADASYRTAFGGGTKLEIK
notes: one of the top 12 chimeric rabbit/human anti-human ROR2 Fabs selected from the focused HCDR3 mutagenesis library
As for B6, in test [4], the Kd was 3.2 nM, the koff came out at 0.00019 s⁻¹ and the kon came out at 60000 M⁻¹ s⁻¹.

B7: XBR2-401 Fab (parental chimeric rabbit/human anti-human ROR2 Fab) (Fab, V domains shown)
VH: QSVKESEGGLFKPTDTLTLTCTVSGFSLSSYGVTWVRQAPGSGLEWIGYINTAGNTYYASWAKSRSTITRNTNENTVTLKMTSLTAADTATYFCARDWTSLNIWGPGTLVTVSS
VL: DPMLTQTPSSTSTAVGDTVTIKCQASQSISSDLSWYQQKPGQRPKLLIYQASTLASGVPSRFKGSGYGTEYTLTISGVQREDAAIYYCLGGYADASYRTAFGGGTKLEIK
notes: Chimeric rabbit/human Fab (rabbit variable domains, human constant domains, kappa light chain, His tag)
Regarding B7, the Kd in test [4] worked out at 7 nM.

B8: X4.21 (Fab, V domains shown)
VH: QSVKESEGGLFKPTDTLTLTCTVSGFSLSSYGVTWVRQAPGSGLEWIGYINTAGNTYYASWAKSRSTITRNTNENTVTLKMTSLTAADTATYFCARDSGVVSLNIWGPGTLVTVSS
VL: DPMLTQTPSSTSTAVGDTVTIKCQASQSISSDLSWYQQKPGQRPKLLIYQASTLASGVPSRFKGSGYGTEYTLTISGVQREDAAIYYCLGGYADASYRTAFGGGTKLEIK
notes: as for B6
Consider B8, for which, in test [4], binding was put at a Kd of 3.4 nM, the koff came out at 8.1e-05 s⁻¹ and the kon came out at 24000 M⁻¹ s⁻¹.

B9: X4.3 (Fab, V domains shown)
VH: QSVKESEGGLFKPTDTLTLTCTVSGFSLSSYGVTWVRQAPGSGLEWIGYINTAGNTYYASWAKSRSTITRNTNENTVTLKMTSLTAADTATYFCARDWGNWSLNIWGPGTLVTVSS
VL: DPMLTQTPSSTSTAVGDTVTIKCQASQSISSDLSWYQQKPGQRPKLLIYQASTLASGVPSRFKGSGYGTEYTLTISGVQREDAAIYYCLGGYADASYRTAFGGGTKLEIK
notes: as for B6
Turning to B9, in test [4], the Kd was determined as 1.3 nM, the koff was determined as 3.8e-05 s⁻¹ and the kon stood at 30000 M⁻¹ s⁻¹.

B10: X4.9 (Fab, V domains shown)
VH: QSVKESEGGLFKPTDTLTLTCTVSGFSLSSYGVTWVRQAPGSGLEWIGYINTAGNTYYASWAKSRSTITRNTNENTVTLKMTSLTAADTATYFCARDNGSTSLNIWGPGTLVTVSS
VL: DPMLTQTPSSTSTAVGDTVTIKCQASQSISSDLSWYQQKPGQRPKLLIYQASTLASGVPSRFKGSGYGTEYTLTISGVQREDAAIYYCLGGYADASYRTAFGGGTKLEIK
notes: as for B6
In test [4], B10 had a Kd of 10 nM, a koff of 0.00034 s⁻¹ and a kon of 33000 M⁻¹ s⁻¹.

B11: X3.13 (Fab, V domains shown)
VH: QSVKESEGGLFKPTDTLTLTCTVSGFSLSSYGVTWVRQAPGSGLEWIGYINTAGNTYYASWAKSRSTITRNTNENTVTLKMTSLTAADTATYFCARDKGWSLNIWGPGTLVTVSS
VL: DPMLTQTPSSTSTAVGDTVTIKCQASQSISSDLSWYQQKPGQRPKLLIYQASTLASGVPSRFKGSGYGTEYTLTISGVQREDAAIYYCLGGYADASYRTAFGGGTKLEIK
notes: as for B6
With B11, in test [4], the Kd was found to be 1.1 nM, the koff was 2.7e-05 s⁻¹ and the kon was found to be 26000 M⁻¹ s⁻¹.

B12: X3.21 (Fab, V domains shown)
VH: QSVKESEGGLFKPTDTLTLTCTVSGFSLSSYGVTWVRQAPGSGLEWIGYINTAGNTYYASWAKSRSTITRNTNENTVTLKMTSLTAADTATYFCARDGLTSLNIWGPGTLVTVSS
VL: DPMLTQTPSSTSTAVGDTVTIKCQASQSISSDLSWYQQKPGQRPKLLIYQASTLASGVPSRFKGSGYGTEYTLTISGVQREDAAIYYCLGGYADASYRTAFGGGTKLEIK
notes: as for B6
In test [4], B12 gave a Kd of 1.9 nM, a koff of 9.2e-05 s⁻¹ and a kon of 49000 M⁻¹ s⁻¹.

B13: X2.12 (Fab, V domains shown)
VH: QSVKESEGGLFKPTDTLTLTCTVSGFSLSSYGVTWVRQAPGSGLEWIGYINTAGNTYYASWAKSRSTITRNTNENTVTLKMTSLTAADTATYFCARDTMSLNIWGPGTLVTVSS
VL: DPMLTQTPSSTSTAVGDTVTIKCQASQSISSDLSWYQQKPGQRPKLLIYQASTLASGVPSRFKGSGYGTEYTLTISGVQREDAAIYYCLGGYADASYRTAFGGGTKLEIK
notes: as for B6
In test [4], B13 yielded a Kd of 1.2 nM, a koff of 4e-05 s⁻¹ and an association rate constant (kon) of 34000 M⁻¹ s⁻¹.

B14: X2.7 (Fab, V domains shown)
VH: QSVKESEGGLFKPTDTLTLTCTVSGFSLSSYGVTWVRQAPGSGLEWIGYINTAGNTYYASWAKSRSTITRNTNENTVTLKMTSLTAADTATYFCARDSMSLNIWGPGTLVTVSS
VL: DPMLTQTPSSTSTAVGDTVTIKCQASQSISSDLSWYQQKPGQRPKLLIYQASTLASGVPSRFKGSGYGTEYTLTISGVQREDAAIYYCLGGYADASYRTAFGGGTKLEIK
notes: as for B6
As to B14, in test [4], the Kd is 1.5 nM, the koff was 0.0001 s⁻¹ and the kon worked out at 69000 M⁻¹ s⁻¹.

B15: X4.12 (Fab, V domains shown)
VH: QSVKESEGGLFKPTDTLTLTCTVSGFSLSSYGVTWVRQAPGSGLEWIGYINTAGNTYYASWAKSRSTITRNTNENTVTLKMTSLTAADTATYFCARDYMMNSLNIWGPGTLVTVSS
VL: DPMLTQTPSSTSTAVGDTVTIKCQASQSISSDLSWYQQKPGQRPKLLIYQASTLASGVPSRFKGSGYGTEYTLTISGVQREDAAIYYCLGGYADASYRTAFGGGTKLEIK
notes: as for B6
In test [4], B15 gave a Kd of 2.8 nM, a koff of 0.00015 s⁻¹ and a kon of 53000 M⁻¹ s⁻¹.

B16: X4.35 (Fab, V domains shown)
VH: QSVKESEGGLFKPTDTLTLTCTVSGFSLSSYGVTWVRQAPGSGLEWIGYINTAGNTYYASWAKSRSTITRNTNENTVTLKMTSLTAADTATYFCARDSRRKSLNIWGPGTLVTVSS
VL: DPMLTQTPSSTSTAVGDTVTIKCQASQSISSDLSWYQQKPGQRPKLLIYQASTLASGVPSRFKGSGYGTEYTLTISGVQREDAAIYYCLGGYADASYRTAFGGGTKLEIK
notes: as for B6
In test [4], B16 showed a Kd of 31 nM, a koff of 0.0017 s⁻¹ and a kon of 54000 M⁻¹ s⁻¹.

B17: X2.23 (Fab, V domains shown)
VH: QSVKESEGGLFKPTDTLTLTCTVSGFSLSSYGVTWVRQAPGSGLEWIGYINTAGNTYYASWAKSRSTITRNTNENTVTLKMTSLTAADTATYFCARDYTSLNIWGPGTLVTVSS
VL: DPMLTQTPSSTSTAVGDTVTIKCQASQSISSDLSWYQQKPGQRPKLLIYQASTLASGVPSRFKGSGYGTEYTLTISGVQREDAAIYYCLGGYADASYRTAFGGGTKLEIK
notes: as for B6
On to B17, for which, in test [4], binding was characterised by a dissociation constant (Kd) of 1.4 nM, the koff is 4.7e-05 s⁻¹ and the kon is 33000 M⁻¹ s⁻¹.
